These are literature values, as cited in article PMC3429939.

In the data set the target is galectin-1 CRD (Homo sapiens) (UniProt P09382).

Regarding galectin-1 CRD (from UniProt P09382), the dissociation constant Kd was 7 µM.

As usually defined, the Kd is the equilibrium constant for the complex coming apart.
